Target: T1, recombinant human IL-8, (ser-IL-8)72 (human, UniProt P10145 28-99, 125I label on tyrosine in the tracer form; the letters do not carry it)
T1 construct: also called human wild type IL-8; HuIL-8
T1 sequence: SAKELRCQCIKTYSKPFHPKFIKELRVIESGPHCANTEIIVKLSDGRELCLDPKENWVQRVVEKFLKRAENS
Test: competition phage ELISA on plate-bound K64C IL-8
Method: The first step of the assay requires that the concentrations of the phage carrying the wild type and mutated antibodies be normalized, allowing a comparison of the relative affinities of each antibody. […] The plates were washed once more and stored covered at 4° C. with 200 ul of PBS/well. […] The phage were resuspended in 500 ul […] Tris-HCl pH 7.5, 1 mM EDTA and […] NaCl and held at 4° C. for no longer than 3 hours. […] The phage were next serially diluted in 3 fold steps down the plate from well A through H. The plates were incubated for I hour at 25° C. followed by nine quick washes with PBS containing 0.05% Tween-20 (PBST).

B1: h6G4V11 Y37A (CDR-L1), phage-displayed (Fab, V domains shown)
VH: EVQLVQSGGGLVQPGGSLRLSCAASGYSFSSHYMHWVRQAPGKGLEWVGYIDPSNGETTYNQKFKGRFTLSRDNSKNTAYLQMNSLRAEDTAVYYCARGDYRYNGDWFFDVWGQGTLVTVSS
VL: DIQMTQSPSSLSASVGDRVTITCRSSQSLVHGIGNTALHWYQQKPGKAPKLLIYKVSNRFSGVPSRFSGSGSGTDFTLTISSLQPEDFATYYCSQSTHVPLTFGQGTKVEIKR
notes: alanine-scan mutant of m36
- binding result: no binding

Reference: patent US20070048219A1 (Genentech, published 2007)
